# Test results as given in patent US20160046680A1, “RADIOTRACER IMAGING USING SODIUM IODIDE SYMPORTER POLYPEPTIDES” (MAYO FOUNDATION FOR MEDICAL EDUCATION AND RESEARCH, priority 2013, published 2016).
# Positions count from the first letter of the chain named. In names and notes the source's numbering stands. Entries after “also recorded” stand apart in the source; their conditions may differ.
# B1: NIS-93E: mutant human sodium iodide symporter polypeptide, human NIS-93E (SEQ ID NO:1) (protein, listed as Homo sapiens)
# chain: MEAVETGERPTFGAWDYGVFALMLLVSTGIGLWVGLARGGQRSAEDFFTGGRRLAALPVGLSLSASFMSAVQVLGVPSEAYRYGLKFLWMCLEQLLNSVLTALLFMPVFYRLGLTSTYEYLEMRFSRAVRLCGTLQYIVATMLYTGIVIYAPALILNQVTGLDIWASLLSTGIICTFYTAVGGMKAVVWTDVFQVVVMLSGFWVVLARGVMLVGGPRQVLTLAQNHSRINLMDFNPDPRSRYTFWTFVVGGTLVWLSMYGVNQAQVQRYVACRTEKQAKLALLINQVGLFLIVSSAACCGIVMFVFYTDCDPLLLGRISAPDQYMPLLVLDIFEDLPGVPGLFLACAYSGTLSTASTSINAMAAVTVEDLIKPRLRSLAPRKLVIISKGLSLIYGSACLTVAALSSLLGGGVLQGSFTVMGVISGPLLGAFILGMFLPACNTPGVLAGLGAGLALSLWVALGATLYPPSEQTMRVLPSSAARCVALSVNASGLLDPALLPANDSSRAPSSGMDASRPALADSFYAISYLYYGALGTLTTVLCGALISCLTGPTKRSTLAPGLLWWDLARQTASVAPKEEVAILDDNLVKGPEELPTGNKKPPGFLPTNEDRLFFLGQKELEGAGSWTPCVGHDGGRDQQETNL
# B2: wild-type human NIS polypeptide: wild-type human sodium iodide symporter polypeptide (protein, UniProt Q92911 1-643, looked up)
# Sodium/iodide cotransporter: B1 chain with E93G
# B3: NIS-Q72N: human NIS with Q72 mutated to N, N-terminal HA-tag (protein, UniProt Q92911 1-643, looked up, variant Q72N)
# Sodium/iodide cotransporter: B1 chain with Q72N, E93G
# modifications: N-terminal HA tag
# Assays:
# [1] = test system: endogenous NIS expressing organs (thyroid and stomach) and heterologous NIS expressing tumor cells; test: Dual isotope SPECT/CT imaging of nude mice with BXPC-3-hNIS tumors; settings: four hours after i.p. administration of 250 μCi each
# Protocol: FIG. 6. SPECT/CT dual isotope imaging of nude mice implanted with SQ BXPX-3-hNIS tumors. Animals were injected i.p with 250 μCi ^125I and 250 μCi ^99mTc and imaged four hours later. Images were processed using Vivo Quant software. The scale was adjusted manually to get minimal yellow in the tissues.
# The stomach and thyroid signals were subtract from the SPECT dataset (FIG. 5). In this experiment, nude female mice (5-week of age) were injected with 3×10^6 BXPC-3-hNIS cells. When tumors reached a diameter of 1 cm, mice were injected I.P. with ^125I sodium iodide (250 μCi) and/or ^99mTc-pertechneate (250 μCi). Four hours post isotope administration, SPECT/CT data were acquired with U-SPECT-II (MiLabs). […] Radioiodide thyroid signal subtraction was performed by normalizing the ^125I SPECT data to thyroid tissue on the ^99mTc SPECT data using the image arithmetic tools available in PMOD image fusion software. This was performed in three steps by (1) calculating the normalization factor (i.e., the inverse ratio between the maximum voxel value corresponding to the thyroid tissue on the ^125I SPECT and the maximum voxel value corresponding to the thyroid tissue on the ^99mTc SPECT data set), (2) multiplying each voxel in the ^125I SPECT dataset by this normalization factor, and (3) subtracting the normalized ^125I SPECT dataset from ^99mTc SPECT data set to generate a thyroid subtraction SPECT dataset (FIG. 5C). Similarly, ^99mTc stomach signal subtraction was performed by (1) calculating the normalization factor which in this case is the inverse ratio of the maximum voxel value corresponding to the stomach tissue on the ^99mTc SPECT to the maximum voxel value corresponding to the stomach tissue in the ^125I SPECT data set, (2) multiplying each voxel in the ^99mTc SPECT dataset by this normalization factor, and (3) subtracting the normalized ^99mTc SPECT dataset from ^125I SPECT data set to generate a stomach subtraction SPECT dataset (FIG. 5B).
# [2] = test system: stomach signal from NIS polypeptide-mediated uptake of radioisotopes; settings: mouse fed by gavage, then imaged; NIS transduced liver
# Excerpt: FIG. 2B is a photograph of the same mouse fed oral contrast agent.
# NIS expressing cells = settings: cited from earlier work
# Mel624 cells = test: Radiotracer uptake assay in Mel624 cells stably expressing NIS polypeptides; type: cell-based; settings: for Uptake of pertechnetate (Technetium-99m) / Uptake of radioiodide (Iodine-125): Mel624 cells expressing the NIS polypeptide, 1 hour at 37° C., +/- 300 μM KClO4
# Protocol: Mel624 cells stably expressing a wild-type human NIS polypeptide (Mel-NIS) or one of two mutant NIS polypeptides (Mel-NIS-93E or Mel-NIS-93Q) were plated in 96-well plates at a density that would lead them to confluency on the day of the uptake assay. 1×Hank's balanced salt solution with calcium, magnesium (HBSS) (Cellgro) and 1 mM HEPES was adjusted to pH 7.3 using KOH (HBBS-HEPES) on the day of the assay. Culture medium was removed from the cells, and 150 μL of HBSS-HEPES+/−300 μM KClO4 was added to the wells. The cells were incubated for 10 minutes at room temperature prior to the addition of radiotracer. Radiotracers, ^125I and ^99mTc, were diluted in HBSS-HEPES to about 70,000 to 100,000 CPM/25 μL (CPM, counts per minute). 25 μL of radiotracer was added to the cells in HBSS-HEPES+/−KClO4, and the cells were incubated at 37° C. for 1 hour. The cells were then washed twice with cold HBSS-HEPES buffer and lysed to release the intracellular radiotracer by adding 200 μL 1M NaOH. Lysates were transferred to strip tubes and quantified using a gamma counter.
# Hela-YFP-IS cells = test: Non-radioactive YFP-H148Q/I152L in vitro uptake assay; type: cell-based
# Excerpt: FIG. 11 contains graphs plotting the relative fluorescence Hela-YFP-IS cells expressing no NIS (i) or the indicated mutant NIS (ii-viii) after treatment with I^−, ReO4^−, BF4^−, and ClO4^−. These graphs show the concentration dependence of I^−, ReO4^−, BF4^−, and ClO4^− induced changes in YFP-H148Q/I152L fluorescence in Hela-YFP-IS cells expressing the indicated NIS mutants.
# Using an anti-HA-tag-Alexa-Fluor-647 monoclonal antibody, cells expressing the NIS mutants on the cell surface were labeled and quantified using flow cytometry. […] A non-radioactive YFP-H148Q/I152L in vitro uptake assay was used to monitor uptake of NIS substrates: […], […], BF4^−, and ClO4^−. The NIS mutants were co-expressed with YFP-H148Q/I152L, which decreased in fluorescence following an interaction with halides. […] This was particularly so at the lowest substrate concentrations, which are of clinical relevance as radiotracers used for imaging are administered to animals and humans in trace amounts. At 1-5 μM concentrations of substrate, NIS-Q72N transported less iodide but more ClO4^− into the cells.
# [3] = 1-5 μM concentrations of substrate, YFP-H148Q/I152L fluorescence
molecule,measurement,setting,value
"[O]=[99Tc](=[O])(=[O])[O-] [^99mTc, ^99mTc-pertechneate]",Accumulation in BXPC-3-hNIS tumor cells,[1],accumulate both isotopes to similar concentrations
same,Organ that preferentially accumulates the isotope,[1],stomach preferentially accumulates
"[125I-].[Na+] [^125I, ^125I sodium iodide]",Accumulation in BXPC-3-hNIS tumor cells,[1],accumulate both isotopes to similar concentrations
same,Organ that preferentially accumulates the isotope,[1],thyroid preferentially accumulates
O=S(=O)([O-])[O-].[Ba+2] [barium sulfate],Isotope signals from the stomach,[2],reduced isotope signals from the stomach
[O-][Cl+3]([O-])([O-])O [perchlorate],Efficiency of concentration in NIS expressing cells compared to iodide anions (less efficiently),NIS expressing cells,10 fold
B1,Efficiency of concentrating iodide relative to TcO4,Mel624 cells,concentrate iodide with greater efficiency than TcO4
same,Concentration of Iodine-125 uptake in tumor cells as compared to non-mutated NIS (NIS WT),Mel624 cells; FIGS. 1A and 1B,decrease the concentration of Iodine-125 uptake
same,Uptake of pertechnetate (Technetium-99m),Mel624 cells,minimal or no uptake of pertechnetate; also recorded: not pertechnetate
same,Uptake of radioiodide (Iodine-125),Mel624 cells,can uptake radioiodide; also recorded: capable of up-taking radioiodide
same,Uptake of pertechnetate (Technetium-99m),Mel624 cells; listed as NIS-G93E,not Technetium-99m
same,Uptake of radioiodide (Iodine-125),Mel624 cells; listed as NIS-G93E,transport selectively Iodine-125; also recorded: selectively transports Iodine-125
B2,Uptake of pertechnetate (Technetium-99m),Mel624 cells,Substantial uptake
same,Uptake of radioiodide (Iodine-125),Mel624 cells,Substantial uptake
B3,ClO4- transported into the cells compared to wild-type NIS,Hela-YFP-IS cells; [3],more ClO4^−
same,Iodide transported into the cells compared to wild-type NIS,Hela-YFP-IS cells; [3],less iodide
same,Substrate transport profile compared to wild-type NIS,"Hela-YFP-IS cells; I-, ReO4-, BF4-, ClO4-, FIGS. 11 and 12",altered substrate transport profile
